Target: T1, raccoon dog transferrin receptor ectodomain (recombinant RDTfR, from residue 121, C-terminal 6x His) (raccoon dog)
T1 construct: transferrin receptor type 1 of the raccoon dog, ectodomain starting at amino acid residue 121 of XM_055316305; Cloned with the N-terminal signal peptide GP67; also called recombinant RDTfR protein; purified RDTfR; source: Sf9 cells (pFastBacI-RDTfR), purified (Ni-NTA, dialysed in PBS); not shown: His6, C-terminal, kept
Test: BLI; virus immobilised on APS probe (Gator Prime), PBS as running buffer; three concentrations (serial dilutions) of RDTfR in PBST (PBS, 0.05% Tween-20) applied; global fit, 1:1 binding model
Conditions: both partners purified

B1: rRDPV-10 virus (rescued from the infectious cDNA clone pRDPV-10 of raccoon dog parvovirus strain RDPV/FLD/2010), capsid of VP2 (complex)
chain: MSDGAVQPDGGQPAVRNERATGSGNGSGGGGGGGSGGVGISTGTFNNQTEFKFLENGWVEITANSSRLVHLNMPESENYRRVVVNNMDKTAVNGNMALDDIHAQIVTPWSLVDANAWGVWFNPGDWQLIVNTMSELHLVSFEQEIFNVVLKTVSESATQPPTKVYNNDLTASLMVALDSNNTMPFTPAAMRSETLGFYPWKPTIPTPWRYYFQWDRTLIPSHTGTSGTPTNIYHGTDPDDVQFYTIENSVPVHLLRTGDEFATGTFFFDCKPCRLTHTWQTNRALGLPPFLNSLPQSEGATNFGDIGVQQDKRRGVTQMGNTNYITEATIMRPAEVGYSAPYYSFEASTQGPFKTPIAAGRGGAQTDENQAADGNPRYAFGRQHGQKTTTTGETPERFTYIAHQDTGRYPEGDWIQNINFNLPVTNDNVLLPTDPIGGKTGINYTNIFNTYGPLTALNNVPPVYPNGQIWDKEFDTDLKPRLHVNAPFVCQNNCPGQLFVKVAPNLTNEYDPDASANMSRIVTYSDFWWKGKLVFKAKLRASHTWNPIQQMSINVDNQFNYVPSNIGGMKIVYEKSQLAPRKLY
Kd: 137 nM
koff: 0.0071 s⁻¹
kon: 51800 M⁻¹ s⁻¹

Source: paper PMC12548415 (Journal of Virology, 2025)
